Measurements taken from publication PMC2901266.

Tests used:
[1] = biological target: ToLCKeV MBP-AC3 fusion protein (Tomato leaf curl Kerala virus-[India:Kerala II:2005]); experiment: sucrose gradient ultracentrifugation + SEC; 10-40% (w/v) sucrose step gradient, 25 mM Tris (pH 8.0), 250 mM NaCl, 2 mM sodium bisulphite, 0.05% Triton X-100, 35,000 rpm 20 h 4°C, against mass markers; gel filtration on Superdex 200 5/150
[2] = biological target: ToLCKeV MBP-AC1 fusion protein (replication initiator protein, Rep) (Tomato leaf curl Kerala virus-[India:Kerala II:2005])

Substance “ToLCKeV MBP-AC3 fusion protein (natural protein)” has a stoichiometry N [1] of 12 to 14 mer and an ATPase activity of AC1 (Rep), release of Pi from [gamma-32P]ATP, with varying MBP-AC3 (increase at 0.02-0.2 pM, reduced at higher AC3: bell shaped curve); increase over Rep alone set as 100% [2] of 80%.
